The values that follow come from US20240409639A1 (published 2024).

The target in assay [1] is human FcRn. Description: BLI (Octet); pH 6.0. (In general: In BLI a coated tip is dipped into the sample, and binding shifts an interference pattern.)
Assay [2] concerns the target ILT4 HIS. Kind of assay: BLI (Octet).
The target in assay [3] is FcγRIIIa. Kind of assay: BLI (Octet).
The target in assay [4] is FcγRI. Description: BLI (Octet).
In assay [5] the target is PD-1 HIS. Description: BLI (Octet).
Assay [6] addresses human FcRn. Description: BLI (Octet); pH 7.2.

B1: CDX-585 (bispecific antibody)
heavy: QVQLVQSGAEVVKPGASVKISCKASGYTFTDYVMHWVRQAPGQSLEWMGVISTYHIPAVYNQKFKGKATMTVDTSTSTVYLELSSLRSEDTAVYYCAREVYGESYYFDVWGQGTTVTVSSASTKGPSVFPLAPSSKSTSGGTAALGCLVKDYFPEPVTVSWNSGALTSGVHTFPAVLQSSGLYSLSSVVTVPSSSLGTQTYICNVNHKPSNTKVDKKVEPKSCDKTHTCPPCPAPEAQGGPSVFLFPPKPKDTLYITREPEVTCVVVDVSHEDPEVKFNWYVDGVEVHNAKTKPREEQYNSTYRVVSVLTVLHQDWLNGKEYKCQVSNKALPAPIEKTISKAKGQPREPQVYTLPPSRDELTKNQVSLTCLVKGFYPSDIAVEWESNGQPENNYKTTPPVLDSDGSFFLYSKLTVDKSRWQQGNVFSCSVMHEALHNHYTQKSLSLSPGKGSSGGGGSDIQMTQSPSSLSASVGDRVTITCRASENIYSYLAWYQQKPGKAPKFLVYNADTLAEGVPSRFSGSGSGTDFTLTISSLQPEDFATYYCQHHYGTPFTFGCGTKLEIKGGGGSGGGGSGGGGSGGGGSQVQLVQSGAEVKKPGASVKVSCKASGYSFTGYTMHWVRQAPGQCLEWMGLINPYTGGTDYNQKFQGRVTMTVDRSTSTAYMELSSLRSEDTAVYYCARERPGGSQFIYYYALDYWGQGTTVTVSS
light: DIVMTQTPLSLPVTPGEPASISCRSSQSIVHSAGNTYLEWYLQKPGQSPQLLIYKVSNRFSGVPDRFSGSGSGTDFTLKISRVEAEDVGVYYCFQGSHVPYTFGGGTKVEIKRTVAAPSVFIFPPSDEQLKSGTASVVCLLNNFYPREAKVQWKVDNALQSGNSQESVTEQDSKDSTYSLSSTLTLSKADYEKHKVYACEVTHQGLSSPVTKSFNRGEC
For B1, the Kd (commonly the equilibrium constant for the complex coming apart) came out at 2.99 nM in assay [1]; 0.305 nM in assay [2]; 4910 nM in assay [3]; 1380 nM in assay [4]; 0.063 nM in assay [5]; 114 nM in assay [6].
